The values below come from patent US20080182978A1, “ANTI-NGF ANTIBODIES AND METHODS USING SAME” (RINAT NEUROSCIENCE CORP, priority 2002, published 2008).

The target of test [1] is T1, human NGF (Homo sapiens, UniProt P01138). Kind of test: cell-based or functional assay.
Target sequence in this assay (P01138 122-241 limits assumed): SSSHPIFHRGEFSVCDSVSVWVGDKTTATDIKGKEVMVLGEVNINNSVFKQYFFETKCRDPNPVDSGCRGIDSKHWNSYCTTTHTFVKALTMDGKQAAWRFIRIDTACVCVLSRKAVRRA
Another test has as its target rat NGF (rat) (UniProt P25427). Kind of test: cell-based or functional assay.
The target of test [2] is T1, human NGF. Kind of test: BIAcore screening assay of Fab library clones (koff). Type of test: binding. The method, then: Small scale expression in 96 wells plates was optimized for screening Fab libraries. Starting from E. coli transformed with a Fab library, colonies were picked to inoculate both a master plate (agar LB+Ampicillin (50 μg/ml)+2% Glucose) and a working plate (2 ml/well, 96 well/plate containing 1.5 mL of LB+Ampicillin (50 μg/ml)+2% Glucose). Both plates were grown at 30° C. for 8-12 hours. The master plate was stored at 4° C. and the cells from the working plate were pelleted at 5000 rpm and resuspended with 1 mL of LB+Ampicillin (50 μg/ml)+1 mM IPTG to induce expression of Fabs. Cells were harvested by centrifugation after 5 h expression time at 30° C., then resuspended in 500 μL of buffer HBS-EP ([…] buffer pH 7.4, 150 mM NaCl, 0.005% P20, 3 mM EDTA). Lysis of HBS-EP resuspended cells was attained by one cycle of freezing (−80° C.) then thawing at 37° C. Cell lysates were centrifuged at 5000 rpm for 30 min to separate cell debris from supernatants containing Fabs. The supernatants were then injected into the BIAcore plasmon resonance apparatus to obtain affinity information for each Fab. Clones expressing Fabs were rescued from the master plate to sequence the DNA and for large scale Fab production and detailed characterization as described below.
Affinities of anti-NGF Fabs and monoclonal antibodies were determined using the BIAcore300™ surface plasmon resonance (SPR) system (BIAcore, INC, Piscaway N.J.). CM5 chips were activated with N-ethyl-N′-(3-dimethylaminopropyl)-carbodimide hydrochloride (EDC) and N-hydroxysuccinimide (NHS) according to the supplier's instructions. Human NGF was diluted into 10 mM sodium acetate pH 4.0 and injected over the activated chip at a concentration of 0.005 mg/mL. Using variable flow time across the individual chip channels, two ranges of antigen density were achieved: 100-200 response units (RU) for detailed kinetic studies and 500-600 RU for screening assays. The chip was blocked with ethanolamine. […] HBS-EP buffer (0.01M HEPES, pH 7.4, 0.15 NaCl, 3 mM EDTA, 0.005% Surfactant […]) was used as running buffer for all the BIAcore assays.
A screening BIAcore assay was optimized to determine the affinity of Fab clones from libraries. Supernatants of small culture lysates were injected at 50 μl/min for 2 min. Dissociation times of 10 to 15 minutes were used for determination of a single exponential dissociation rate (koff) using BIAevaluation software. […] Clones showing improved (slower) koff values were expressed at large scale and full kinetic parameters, kon and koff, were determined on purified protein. The assay was capable of detecting differences in affinity that were approximately 2-fold or larger.
For affinity screening experiments, each library was further paired with the corresponding CDR-grafted light or heavy chain (for example, the H1/H2 library was paired with CDR-grafted light chain), the antibody was expressed, and affinity to human NGF of the individual clones was screened using the BIACORE surface plasmon resonance (SPR) system (BIAcore, Inc. Piscataway, N.J.) according to the manufacturer's instructions and as described above. koff, kon and KD were determined. Antibody clones were ranked based on koff rates, since generally most variation in affinity is seen in koff rates, and further because koff rates are independent of antibody concentration.
20-80 clones from each small library were screened using BIAcore analysis as described herein. Samples were simultaneously analyzed by BIAcore for binding affinity to NGF in one channel of the BIAcore chip and for presence of Fab by binding to a penta-histag antibody in another channel of the sensor chip, to detect the his tag at the C terminus of the heavy chain. Clones that expressed protein were classified as having the same affinity, worse affinity, better affinity or no binding, using koff to classify: The results of this analysis are shown in Table 5.
Target sequence in this assay (P01138 122-241): as the sequence (P01138 122-241 limits assumed) above

Where [3] appears, read: Table 3: heavy chain library clones paired with 6D5 light chain.
Setting [4] is: Table 6: single CDR H3 or L3 mutation in 8L2-6D5 template.

Changes are numbered by the printed parent chain. In names and notes the source's numbering stands.

rat NGF (rat), sequence (P25427 122-241 limits assumed): as the sequence (P01138 122-241 limits assumed) above, with S3T, I6V, R9M, M37T, D60A, D65E, M92T, G94D, V117A, A120G counted along it

In the test with human NGF [1], mouse antibody 911 (Fab) yielded an IC50, human NGF-dependent survival of mouse E13.5 trigeminal neurons, 1.5 pM NGF of 63.5 pM and an IC50, human NGF-dependent survival of mouse E13.5 trigeminal neurons, 15 pM NGF of 322 pM. Also, in the test with rat NGF (rat), the IC50, rat NGF-dependent survival of mouse E13.5 trigeminal neurons, 1.5 pM NGF is 34.6 pM and the IC50, rat NGF-dependent survival of mouse E13.5 trigeminal neurons, 15 pM NGF came to 161 pM.

B1: H19: heavy chain library clone, CDRH1 SEQ ID NO:30, CDRH2 SEQ ID NO:31 (antibody, V domains shown)
VH: QVQLQESGPGLVKPSETLSLTCTVSGFSLIGYDLNWIRQPPGKGLEWIGIIWGDGTTDYNSAVKSRVTISKDTSKNQFSLKLSSVTAADTAVYYCARGGYYYGTSYYFDYWGQGTLVTVS
VL: DIQMTQSPSSLSASVGDRVTITCRASQDISNHLNWYQQKPGKAPKLLIYYISRFHSGVPSRFSGSGSGTDFTFTISSLQPEDIATYYCQQSKTLPYTFGQGTKLEIKRT
With B1, the koff with human NGF [2] (setting [3]) is 0.00024 s⁻¹.

B2: H17: heavy chain library clone, CDRH1 SEQ ID NO:42, CDRH2 SEQ ID NO:43 (antibody, V domains shown)
VH: B1 VH with L34A, N35S, I50G, A62S
VL: B1 VL
As for B2, the off-rate constant (koff) with human NGF [2] (setting [3]) was found to be 0.00061 s⁻¹. Moreover, the Kd with human NGF [2] (Table 3: heavy chain library clones, KD calculated using kon 4e4 M^−1s^−1) was 15.2 nM.

B3: Y110K: 8L2-6D5 template with CDR H3 mutation Y110K (antibody, V domains shown)
VH: B1 VH with L34I, I50M, V63L, Y110K
VL: B1 VL
For the molecule B3, the off-rate constant (koff) with human NGF [2] (setting [4]) amounted to 0.0014 s⁻¹.

B4: H18: heavy chain library clone, CDRH1 SEQ ID NO:36, CDRH2 SEQ ID NO:37 (antibody, V domains shown)
VH: B1 VH with L34A, N35T, I50G
VL: B1 VL
In the test with human NGF [2] (setting [3]), B4 showed a koff of 0.00042 s⁻¹.

B5: Y110R: 8L2-6D5 template with CDR H3 mutation Y110R (antibody, V domains shown)
VH: B1 VH with L34I, I50M, V63L, Y110R
VL: B1 VL
With B5, the koff in the test with human NGF [2] (setting [4]) is 0.0016 s⁻¹.

B6: H225: heavy chain library clone, CDRH1 SEQ ID NO:34, CDRH2 SEQ ID NO:35 (antibody, V domains shown)
VH: B1 VH with L34V, N35T, I50G, A62S
VL: B1 VL
Take B6: the koff with human NGF [2] (setting [3]) worked out at 0.00038 s⁻¹.

B7: Y106M: 8L2-6D5 template with CDR H3 mutation Y106M (antibody, V domains shown)
VH: B1 VH with L34I, I50M, V63L, Y106M
VL: B1 VL
In turn, B7 displayed a koff with human NGF [2] (setting [4]) of 0.0027 s⁻¹.

B8: Y110S: 8L2-6D5 template with CDR H3 mutation Y110S (antibody, V domains shown)
VH: B1 VH with L34I, I50M, V63L, Y110S
VL: B1 VL
On to B8, for which, in the test with human NGF [2] (setting [4]), the koff amounted to 0.0015 s⁻¹.

B9: H28: heavy chain library clone, CDRH1 SEQ ID NO:44, CDRH2 SEQ ID NO:45 (antibody, V domains shown)
VH: B1 VH with L34S, N35T, I50S, V63L
VL: B1 VL
B9 yielded a koff in the test with human NGF [2] (setting [3]) of 0.00075 s⁻¹.

B10: Y106R: 8L2-6D5 template with CDR H3 mutation Y106R (antibody, V domains shown)
VH: B1 VH with L34I, I50M, V63L, Y106R
VL: B1 VL
Take B10: in the test with human NGF [2] (setting [4]), the koff was determined as 0.0016 s⁻¹.

B11: H227: heavy chain library clone, CDRH1 SEQ ID NO:40, CDRH2 SEQ ID NO:41 (antibody, V domains shown)
VH: B1 VH with L34I, N35S, I50Q, A62S
VL: B1 VL
B11 displayed a koff in the test with human NGF [2] (setting [3]) of 0.00054 s⁻¹.

B12: F108W: 8L2-6D5 template with CDR H3 mutation F108W (antibody, V domains shown)
VH: B1 VH with L34I, I50M, V63L, F108W
VL: B1 VL
The molecule B12 returned a koff with human NGF [2] (setting [4]) of 0.00122 s⁻¹.

B13: Y96R: 8L2-6D5 template with CDR L3 mutation Y96R (antibody, V domains shown)
VH: B1 VH with L34I, I50M, V63L
VL: B1 VL with Y96R
The molecule B13 registered a koff with human NGF [2] (setting [4]) of 0.0017 s⁻¹. This koff and that of the molecule before are within 1.5-fold of each other.

B14: D109N: 8L2-6D5 template with CDR H3 mutation D109N (antibody, V domains shown)
VH: B1 VH with L34I, I50M, V63L, D109N
VL: B1 VL
B14: the koff with human NGF [2] (setting [4]) came out at 0.0015 s⁻¹.

B15: Y100R: 8L2-6D5 template with CDR H3 mutation Y100R (antibody, V domains shown)
VH: B1 VH with L34I, I50M, V63L, Y100R
VL: B1 VL
In the test with human NGF [2] (setting [4]), B15 came in with a koff of 0.0011 s⁻¹. This koff and that of the molecule before are within 1.5-fold of each other.

B16: D109G: 8L2-6D5 template with CDR H3 mutation D109G (antibody, V domains shown)
VH: B1 VH with L34I, I50M, V63L, D109G
VL: B1 VL
For the molecule B16, the koff with human NGF [2] (setting [4]) came to 0.001 s⁻¹.

B17: Y100L: 8L2-6D5 template with CDR H3 mutation Y100L (antibody, V domains shown)
VH: B1 VH with L34I, I50M, V63L, Y100L
VL: B1 VL
In the case of B17, the koff with human NGF [2] (setting [4]) was 0.0012 s⁻¹.

B18: Y106T: 8L2-6D5 template with CDR H3 mutation Y106T (antibody, V domains shown)
VH: B1 VH with L34I, I50M, V63L, Y106T
VL: B1 VL
Molecule B18 yielded an off-rate (koff) in the test with human NGF [2] (setting [4]) of 0.002 s⁻¹.

B19: T104S: 8L2-6D5 template with CDR H3 mutation T104S (antibody, V domains shown)
VH: B1 VH with L34I, I50M, V63L, T104S
VL: B1 VL
As for B19, the koff in the test with human NGF [2] (setting [4]) is 0.0022 s⁻¹.

B20: H222: heavy chain library clone, CDRH1 SEQ ID NO:32, CDRH2 SEQ ID NO:33 (antibody, V domains shown)
VH: B1 VH with L34V, N35T, I50G
VL: B1 VL
B20 yielded a koff in the test with human NGF [2] (setting [3]) of 0.00038 s⁻¹.

B21: Y110T: 8L2-6D5 template with CDR H3 mutation Y110T (antibody, V domains shown)
VH: B1 VH with L34I, I50M, V63L, Y110T
VL: B1 VL
Take B21: the koff with human NGF [2] (setting [4]) was 0.0017 s⁻¹.

B22: Y107F: 8L2-6D5 template with CDR H3 mutation Y107F (antibody, V domains shown)
VH: B1 VH with L34I, I50M, V63L, Y107F
VL: B1 VL
In the test with human NGF [2] (setting [4]), B22 had a koff of 0.0014 s⁻¹.
